Biological target: GST-FUS (Homo sapiens, UniProt P35637 1-526)
Assay: EMSA; 0.15-5 uM GST-FUS; yeast tRNA 25 ng, heparin added after binding; 10 mM Tris pH 7.5, 75 mM KCl, 4 mM MgCl2, 25 mM phosphocreatine, 1.25 mM ATP, 1.3% polyvinyl alcohol, 25 ng yeast tRNA, 0.8 mg BSA, 1 mM DTT, RNasin, 0.1 mM EDTA, 10% glycerol; 10 ul, 20 min at 30 C; then heparin 0.5 ug/ml; 4.5% native gel
Details: protein: recombinant; tags: N-terminal GST, TEV-cleavable (GST-TEV-FUS); label: 32P-UTP; single strand

GST-FUS, sequence (P35637 whole entry): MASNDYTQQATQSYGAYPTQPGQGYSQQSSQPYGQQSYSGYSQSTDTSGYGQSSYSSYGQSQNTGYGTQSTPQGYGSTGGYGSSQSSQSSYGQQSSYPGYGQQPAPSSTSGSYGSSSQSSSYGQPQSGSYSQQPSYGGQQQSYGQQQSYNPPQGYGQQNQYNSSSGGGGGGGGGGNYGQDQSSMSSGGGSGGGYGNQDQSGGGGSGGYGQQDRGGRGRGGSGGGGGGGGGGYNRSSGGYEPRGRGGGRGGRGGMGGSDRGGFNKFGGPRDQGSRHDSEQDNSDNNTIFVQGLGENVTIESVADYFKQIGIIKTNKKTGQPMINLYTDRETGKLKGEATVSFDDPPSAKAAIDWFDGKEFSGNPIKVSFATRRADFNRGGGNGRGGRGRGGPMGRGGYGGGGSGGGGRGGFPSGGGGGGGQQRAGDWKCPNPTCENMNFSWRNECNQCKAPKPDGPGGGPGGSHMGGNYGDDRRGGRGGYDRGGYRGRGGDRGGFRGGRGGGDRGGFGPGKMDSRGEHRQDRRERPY

GGGGAAAAUUAAUGUGUGUGUGUGGAAAAUU (ssRNA) [FUS RNA probe (GU-repeat)]: binds.
